Test results: patent US20250161408A1, “PEPTIDIC INHIBITORS OF AMYLOID SELF- AND CROSS-ASSEMBLY” (TECHNISCHE UNIVERSITÄT MÜNCHEN, priority 2022, published 2025)

What was measured:
[1] = biological target: Aβ42 (Homo sapiens (Human)) (UniProt P05067)
[2] = biological target: Aβ42 fibrils (fAβ42) (Homo sapiens (Human)) (UniProt P05067)
[3] = biological target: IAPP fibrils (fIAPP) (human) (UniProt P10997)
[4] = biological target: islet amyloid polypeptide (IAPP) (human) (UniProt P10997)

With “proteinase K (PK) (from UniProt P06873) (enzyme)” the proteinase K digestion of hf-Aβ42/Nle3-VF followed by dot blot (6E10) [1] was 30 min, the proteinase K digestion followed by dot blot (6E10) [2] was 2 h and the proteinase K digestion followed by dot blot (anti-fIAPP antibody) [3] was > 30 h. For the same substance, the proteinase K digestion of hf-IAPP/ACM followed by dot blot [4] was < 6 h.
